According to US11135301B2, “Triblock polypeptide-based nanoparticles for the delivery of hydrophilic drugs” (Duke University, priority 2016, dated 2021):
Where “and” joins values, the source holds several entries; their conditions need not be identical. Identical values can stand only once. Counter-ions that a name gives are not always drawn.

B1: SKGPG-(AGVPG)160-(YG)6-(CGG)8-WP (protein)
chain: SKGPGAGVPGAGVPGAGVPGAGVPGAGVPGAGVPGAGVPGAGVPGAGVPGAGVPGAGVPGAGVPGAGVPGAGVPGAGVPGAGVPGAGVPGAGVPGAGVPGAGVPGAGVPGAGVPGAGVPGAGVPGAGVPGAGVPGAGVPGAGVPGAGVPGAGVPGAGVPGAGVPGAGVPGAGVPGAGVPGAGVPGAGVPGAGVPGAGVPGAGVPGAGVPGAGVPGAGVPGAGVPGAGVPGAGVPGAGVPGAGVPGAGVPGAGVPGAGVPGAGVPGAGVPGAGVPGAGVPGAGVPGAGVPGAGVPGAGVPGAGVPGAGVPGAGVPGAGVPGAGVPGAGVPGAGVPGAGVPGAGVPGAGVPGAGVPGAGVPGAGVPGAGVPGAGVPGAGVPGAGVPGAGVPGAGVPGAGVPGAGVPGAGVPGAGVPGAGVPGAGVPGAGVPGAGVPGAGVPGAGVPGAGVPGAGVPGAGVPGAGVPGAGVPGAGVPGAGVPGAGVPGAGVPGAGVPGAGVPGAGVPGAGVPGAGVPGAGVPGAGVPGAGVPGAGVPGAGVPGAGVPGAGVPGAGVPGAGVPGAGVPGAGVPGAGVPGAGVPGAGVPGAGVPGAGVPGAGVPGAGVPGAGVPGAGVPGAGVPGAGVPGAGVPGAGVPGAGVPGAGVPGAGVPGAGVPGAGVPGAGVPGAGVPGAGVPGAGVPGAGVPGAGVPGAGVPGAGVPGAGVPGAGVPGAGVPGAGVPGAGVPGAGVPGAGVPGAGVPGAGVPGAGVPGAGVPGAGVPGAGVPGAGVPGAGVPGAGVPGAGVPGAGVPGAGVPGAGVPGAGVPGYGYGYGYGYGYGCGGCGGCGGCGGCGGCGGCGGCGGWP

Experiments:
[1] = Temperature-programmed turbidimetry (transition temperature Tt); assay type: physicochemical; settings: for Tt, Concentration 25 μM / Tt, Concentration 50 μM / Tt, Concentration 100 μM: ATBP or ATBP-SMM conjugate in PBS; for Tt, Concentration 25 μM: ATBP concentration 25 μM; for Tt, Concentration 50 μM: ATBP concentration 50 μM; for Tt, Concentration 100 μM: ATBP concentration 100 μM
Method: Temperature-Programmed Turbidimetry:
To determine the Tt ATBP-SMM conjugate or parent ATBP were resuspended in PBS at ATBP concentrations of […] and the optical density of each sample was measured at 350 nm by ramping the temperature at a rate of 1° C./min on a temperature-controlled UV-vis spectrophotometer (Cary 300 Bio; Varian Instruments, Palo Alto, Calif.). The Tt was determined from the inflection point of the turbidity profile. […]

[2] = Pyrene fluorescence assay (critical aggregation concentration); assay type: physicochemical
Method: The CAC of ATBP and ATBP-SMM conjugates were determined by fluorescence spectroscopy using pyrene which was utilized as a probe of the local hydrophobicity. The ratio of the first fluorescence emission peak (I370-373) and the third peak (I381-394) were measured at different ATBP concentrations. The inflection point of the curves was used to determine the CAC.
ATBP-GEM was characterized by DLS, SLS, cryo-TEM, AFM, temperature programmed turbidimetry and pyrene fluorescence assay. The detailed procedure was identical to that used to characterize ATBP-SMM conjugates.

[3] = Static light scattering (Rg, Nagg, shape factor); assay type: physicochemical; settings: for ρ (Rg/Rh) shape factor: computed from DLS and SLS data; for Nagg (chains per nanoparticle) / Rg: nanoparticles; for Nagg (chains per nanoparticle): SLS; for Rg: SLS partial Zimm plot
Method: (§1) Static and Dynamic Light Scattering:
(§2) Static and dynamic light scattering measurements were performed on an ALV/CGS-3 goniometer system (Langen, Germany) to determine the Rh and Rg of the ATBP and ATBP-SMM nanoparticle. For the ALV/CGS-3 goniometer system, ATBP and ATBP-SMM conjugates were resuspended in PBS and filtered through 0.22 μm Millex-GV filters into a 10 mm diameter disposable borosilicate glass tube (Fisher). SLS and DLS were measured simultaneously at 22° C. for angles between 30°-150° at 5° increments, where the measurements at each angle was of 3 runs for 15 seconds. The differential refractive index (dn/dc) was quantified by determining the refractive index at five different dilutions using an Abbemat 500 refractometer (Anton Paar, Graz, Austria). DLS data were analyzed by fitting the autocorrelation function to a biexponential decay using the HDRC software package (Germany). The Rh was plotted against angle and extrapolated to zero scattering angle in order to eliminate the effect of the form factor and observe the true hydrodynamic radius. Partial Zimm plots were used to analyze the SLS measurements and ALV/Dynamic and Static FIT and PLOT software was used to determine the Rg and MW of the nanoparticles. The Nagg was calculated by dividing the MW of the nanoparticles by the MW of the ATBP or ATBP-SMM conjugate.
(§3) The detailed procedure was identical to that used to characterize ATBP-SMM conjugates.

[4] = Dynamic light scattering (hydrodynamic radius); assay type: physicochemical; settings: ATBP or ATBP-SMM conjugate nanoparticles, DLS in PBS at 22° C.
Method: as §1, §2, §3

[5] = SMM conjugation ratio by Ellman's reagent assay; assay type: physicochemical
Method: Determination of SMM Conjugation Ratio:
Following purification, 2-3 mg of lyophilized ATBP was dissolved in 1 mL ddH20. In order to break any pre-existing disulfide bonds between unconjugated cysteine residues, 100 μL of the conjugate was incubated with 100 μL of Immobilized TCEP Reducing Gel (Thermo Fisher Scientific; Rockford, Ill.) for 1 hr at 25° C. Included spin columns were utilized to separate the TCEP beads from the ATBP conjugates. The solution was then split for use in two parallel assays. To determine the ATBP concentration, a 96-well bicinchoninic acid assay (Thermo Fisher Scientific) was used on a Victor3™ microplate reader (Perkin Elmer; Waltham, Mass.). 10 μL of ATBP solution was mixed with 200 μL of BCA working reagent, incubated for 30 min at 37° C., and was compared to an ATBP standard curve (100, 50, 25, 10, 5, 0 μM) fit to a 2nd order polynomial in order to estimate the ATBP concentration for the absorbance at 560 nm. Each conjugate was measured in triplicate. To determine the concentration of free thiols, a 96-well Ellman's assay was developed for use on the Victor3™ microplate reader at an absorbance of 405 nm. 40 μL of an ATBP solution was mixed with 200 μL of a working reagent (25 μM Ellman's reagent in 100 mM phosphate buffer, 1 mM EDTA, pH 8.0), incubated for 2 h at 25° C., and was compared to a standard curve of the ATBP prior to conjugation (100, 50, 25, 10, 5, 0 μM). […] The conjugation ratio was the difference between the number of cysteines (8/ATBP) and the calculated number of free cysteines.

[6] = reported value in nude mice; cited from earlier work
[7] = test system: HCT116 human colon cancer cells; assay: In vitro cytotoxicity (MTS), HCT116; assay type: cell-based; settings: HCT-116, 72 h, HCT-116 cells, GEM equivalent
Method: (§4) HCT116 and Colo205 human colon cancer cells were procured from Duke Cell Culture Facility and were cultured in complete media containing Minimum Essential Medium Eagle (MEME) supplemented with 10% Fetal Bovine Serum (FBS). Cells were maintained at 37° C. and 5% CO2 and passaged every 2-3 days. […] 20 μL of CellTiter 96 AQueous™ (Promega; Madison, Wis.) 3-(4,5,-[…])-5-(3-carboxymethoxyphenyl)-2-(4-sulfophenyl)-2H-tetrazolium (MTS) solution was added to each well and incubated at 37° C. After 2 h of incubation, the absorbance of the solution was measured at 490 nm with a Victor3 microplate reader (Perkin Elmer; Waltham, Mass.).

[8] = test system: Colo205 human colon cancer cells; assay: In vitro cytotoxicity (MTS), Colo205; assay type: cell-based; settings: COLO 205, 72 h, Colo 205 cells, GEM equivalent
Method: as §4

[9] = test system: subcutaneous HCT116 tumors; assay: Tumor regression, subcutaneous HCT116 xenograft; assay type: in vivo, mice; settings: 25 mg·kg^−1 GEM equivalent i.v. on day 0, 2 and 4, n=6
Method: The PBS control or drugs were administered by tail vein infusion (50 μL/min) of 500 μL. Tumor dimensions and BW were determined 3-4 times a week, and the tumor volume was calculated using the equation: volume [mm^3]=length×width×width×1/2.
BW of mice were monitored and the mice were euthanized upon exceeding 15% loss in BW or if their tumors volume was greater than 1000 mm^3. […] The maximum tolerated dose (MTD) was determined in mice with tumors. Kaplan-Meier analysis was used to compare the cumulative survival and the Sidak test, Tukey Test, Wilcoxon test were carried out using GraphPad Prism 6 software.

[10] = Table 1, ATBP or ATBP-SMM conjugate, pyrene assay

Molecule | Tt, Concentration 25 μM [1] [C] | Tt, Concentration 50 μM [1] [C] | Tt, Concentration 100 μM [1] [C] | CAC [2, 10] [µM] | ρ (Rg/Rh) shape factor [3] | Nagg (chains per nanoparticle) [3] | Rg [3] [nm] | Rh [4] | #SMM/ATBP (number of SMM conjugated per ATBP) [5] | terminal half-life [6] [h] | IC50 [7] [nM] | IC50 [8] [nM] | median survival time [9] [days] | mean tumor volume ([9]; 12 days after treatment) [mm^3] | Tt ([1]; FIG. 3(G), thermal turbidimetry at 350 nm) [°C] | CAC ([2]; pyrene fluorescence assay)
CN1C(=O)C=CC1=O [SMM 5, N-methyl maleimide] | 45 | 44 | 42 | 4.9 | 0.978 | 62 | 45.7 | 46.8 nm | 6.8 |  |  |  |  |  |  | 
CC(C)(C)N1C(=O)C=CC1=O [SMM 8, N-^tbutyl maleimide] | 44 | 47 | 41 | 1.5 | 0.963 | 93 | 44.5 | 46.2 nm | 6.4 |  |  |  |  |  |  | 
Cl.NCCN1C(=O)C=CC1=O [SMM 2, N-1-(2-Amino-ethyl)-pyrrole-2,5-dione hydrochloride] | 49 | 46 | 41 | 6.6 | 1.14 | 50 | 141.0 | 123.5 nm | 6.9 |  |  |  |  |  |  | 
O=C1C=CC(=O)N1c1ccccc1 [SMM 7, N-Phenyl maleimide] | 48 | 44 | 41 | 1.6 | 0.905 | 112 | 44.4 | 49.1 nm | 7.0 |  |  |  |  |  |  | 
CCN1C(=O)C=CC1=O [SMM 6, N-ethyl maleimide] | 47 | 46 | 40 | 3.8 | 1.004 | 115 | 62.5 | 62.3 nm | 7.1 |  |  |  |  |  |  | 
O=C1C=CC(=O)N1O [SMM 1, N-hydroxymaleimide] | 49 | 46 | 41 | 8.2 | 0.81 | 41 | 77.0 | 87.3 nm | 7.4 |  |  |  |  |  |  | 
Nc1ccn([C@@H]2O[C@H](CO)[C@@H](O)C2(F)F)c(=O)n1 [GEM, Gemcitabine] |  |  |  |  |  |  |  |  |  | 3.4 | ~4.1 | ~46.4 | 21 | 343 |  | 
CS(=O)(=O)OCCN1C(=O)C=CC1=O [SMM 3, N-2-Maleimidoethyl mesylate] | 45 | 42 | 38 | 3.2 | 1.06 | 219 | 115.6 | 109.1 nm | 6.9 |  |  |  |  |  |  | 
B1 | 47 | 44 | 40 | 3.6 | 0.85 | 62 | 42.6 | 50 nm and 50.1 nm |  |  |  |  |  |  | 47 | about 3.6 μM
